Measurements from paper PMC6224480, “Insights into Kinesin-1 Activation from the Crystal Structure of KLC2 Bound to JIP3” (Structure(London, England:1993), 2018).

Legend:
KLC2^TPR-myc = target: T1, KLC2^TPR-myc (Mus musculus, UniProt O88448); assay: Fluorescence anisotropy-based binding competition against FITC-LFP motif peptide; set-up: species or system murine; conditions: FITC-LFP peptide 300 nM, KLC2^TPR-myc 21 μM, Trp-JIP3^LZ two independent experiments, CSTN-WD1 one experiment
T1 construct: comprised murine KLC2 residues 191-480; His6-SUMO (N, cleaved yes); made in house; host or cells: E. coli BL21(DE3) Rosetta
T1 sequence (O88448 191-480): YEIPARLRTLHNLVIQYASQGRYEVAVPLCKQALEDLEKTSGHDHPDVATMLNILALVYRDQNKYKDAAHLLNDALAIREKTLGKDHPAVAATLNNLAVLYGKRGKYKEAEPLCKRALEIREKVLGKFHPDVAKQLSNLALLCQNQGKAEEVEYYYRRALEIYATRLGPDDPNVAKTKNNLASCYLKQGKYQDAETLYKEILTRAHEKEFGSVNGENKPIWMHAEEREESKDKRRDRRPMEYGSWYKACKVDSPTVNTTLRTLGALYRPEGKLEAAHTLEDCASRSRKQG
Source text: Kinesin-1 activation by JIP3 requires JIP3^LZ binding to KLC^TPR ([Watt et al., 2015]). How does JIP3^LZ binding to the KLC^TPR relieve KLC regulation of the kinesin-1 molecule? Tryptophan-acidic cargoes activate kinesin-1 by releasing the KLC LFP motif from the KLC^TPR ([Yip et al., 2016]). […] We therefore wondered whether JIP3^LZ binding to the KLC2^TPR allosterically regulates interactions between KLC2^TPR and the LFP motif. We investigated this using an in vitro, fluorescence anisotropy-based binding competition assay with purified proteins and peptides ([Yip et al., 2016]). […] Thus, JIP3 activates kinesin-1 by a different mechanism to tryptophan-acidic cargoes.
The binding affinity between the FITC-labelled LFP-motif peptide and the KLC2^TPR-myc was measured essentially as described previously ([Yip et al., 2016]). FITC-labelled LFP motif peptide (300 nM) was incubated with 2-fold dilutions of KLC2^TPR-myc in assay buffer (0.1 M NaCl, 25 mM HEPES, 5 mM MgCl2, 1 mM TCEP, final pH 7.5) in triplicate in 384-well plates, for 1 hour at room temperature. Fluorescence measurements were recorded on a TecanSpark plate reader at excitation and emission wavelengths of 488 nm and 535 nm respectively. Fluorescence anisotropy values were calculated at each KLC2^TPR-myc concentration and the data were fitted with a fixed-slope dose response curve in Prism (GraphPad). […]

[1] = test system: wild-type and mutant KLC2^TPR-myc; assay: ITC with wild-type and/or TPR1-mutant KLC2^TPR-myc (collective statements); type: binding, murine; conditions: all three mutations in TPR1 of KLC2^TPR-myc; ITC
Description: The Trp-JIP3^LZ protein used for CD and ITC experiments was prepared as described above for the JIP3^LZ, with the following modifications. Following 3C cleavage, contaminating GST3C was removed by incubation of the eluate with fresh, pre-equilibrated glutathione sepharose 4B resin for 2 hours at room temperature. The Trp-JIP3^LZ was then further purified by size exclusion chromatography using a Superdex 75 16/600 column equilibrated in 100 mM NaCl, 25 mM HEPES, 1 mM TCEP (final pH 7.5). Wild-type/mutant KLC2^TPR-myc samples used for CD and ITC experiments were prepared as described above the KLC2^TPR used in crystallographic studies. The Trp-JIP3^LZ and KLC2^TPR-myc samples used in the fluorescence anisotropy-based binding competition assays were prepared as for those used in the CD and ITC studies, but the final size-exclusion step was performed in 100 mM NaCl, 25 mM HEPES, 5mM MgCl2, 1 mM TCEP (final pH 7.5).
(§1) To study binding of the Trp-JIP3^LZ and FITC-CSTN-WD2 peptide to wild-type and mutant KLC2^TPR-myc, the recombinant proteins were prepared by size exclusion chromatography in 0.1 M NaCl, 25 mM HEPES, 1 mM TCEP, final pH 7.5. […] The peptide concentration was determined by measuring the absorbance at 483 nm and using a molar extinction coefficient of 68,000 M^-1cm^-1. […] The resulting isotherms were analysed in SEDPHAT. […]

CD spectroscopy = type: physicochemical; conditions: 20°C, 20 mM potassium phosphate pH 7.5, 0.5 mM DTT
Description: All CD spectra were recorded on a Chirascan CD spectrometer (Applied Photophysics) in quartz cuvettes with a 0.1 cm path length. Data were recorded at 20°C between 260 - 180 nm in 1 nm increments and a 2 nm bandwidth over an average of two scans. The KLC2^TPR-myc and Trp-JIP3^LZ proteins were dialysed extensively into 20 mM potassium phosphate pH 7.5, 0.5 mM DTT. Spectra were collected from KLC2^TPR-myc samples at concentrations of 0.29, 0.14 and 0.086 mg/ml. Trp-JIP3^LZ spectra were collected at 0.15, 0.074 and 0.044 mg/ml. One spectrum was recorded for each sample at each concentration and background-corrected by subtraction of a buffer-only spectrum. Corrected spectra were converted to units of mean residue ellipticity and deconvolved using the Dichroweb server ([Whitmore and Wallace, 2008]). KLC2^TPR-myc and Trp-JIP3^LZ spectra were analysed using the SELCON3 and CONTIN algorithms, respectively, using reference dataset set 4 ([Sreerama et al., 1999], [van Stokkum et al., 1990]). For each protein, the mean percentage of each secondary structure type, and the corresponding standard deviation, was calculated from the values obtained from the three concentrations. The secondary structure content for KLC2^TPR-myc and Trp-JIP3^LZ were calculated using the KLC2^TPR:JIP3^LZ crystal structure using the STRIDE server (http://webclu.bio.wzw.tum.de/cgi-bin/stride/stridecgi.py) ([Frishman and Argos, 1995]).

[2] = test system: KLC2^TPR-myc Arg^312Glu (R312E); assay: ITC of Trp-JIP3^LZ into R312E KLC2^TPR-myc; type: binding, murine
Source text: The KLC2^TPR construct used in this work comprised murine KLC2 residues 191-480, which is similar to those used in previous studies ([Nguyen et al., 2017], [Zhu et al., 2012]) but with a slightly longer N-terminal region to include residues 191-194, which are very highly conserved in Bilaterian KLCs. To construct the pMW-His6-SUMO-KLC2^TPR vector, the sequence encoding KLC2^TPR (residues 191-480) was amplified by PCR from a murine template ([Dodding et al., 2011]) and cloned into the NotI/EcoRI sites of pMW his-SUMO. […]
The Trp-JIP3^LZ protein used for CD and ITC experiments was prepared as described above for the JIP3^LZ, with the following modifications. […] The Trp-JIP3^LZ and KLC2^TPR-myc samples used in the fluorescence anisotropy-based binding competition assays were prepared as for those used in the CD and ITC studies, but the final size-exclusion step was performed in 100 mM NaCl, 25 mM HEPES, 5mM MgCl2, 1 mM TCEP (final pH 7.5).
as §1

B1: Trp-JIP3^LZ: JIP3^LZ construct N-terminally fused to a tryptophan residue (protein)
chain: WMGKEVGNLLLENSQLLETKNALNVVKNDLIAKVDQLSGEQEVLKGELEAAKQAKVKLENRIKELEEELKRV
modifications: left off: GST, N-terminal, cleaved
notes: JIP3^LZ construct N-terminally fused to a tryptophan residue
For B1, which “effect on binding of KLC2^TPR-myc to FITC-labeled LFP motif peptide” value (KLC2^TPR-myc) is on record?
The value was “no effect”.

What about the “effect of the three TPR1 mutations on binding” value [1] of the same molecule?
Its value is “completely abrogated binding”.

What about the “mean α-helical content” value (CD spectroscopy; CONTIN deconvolution, mean and SD from three concentrations (0.15, 0.074, 0.044 mg/ml)) of the same molecule?
The value was 59% ± 3%.

What about the “ratio of ellipticities at 222 and 208 nm” value (CD spectroscopy; n = 3) of the same molecule?
Its value is 0.88 ± 0.01.

And the “binding to Arg^312Glu mutant” value [2]?
The value was “retained the ability to bind”.
